Source: paper PMC10937111, “Structural basis for intra- and intermolecular interactions on RAD9 subunit of 9-1-1 checkpoint clamp implies functional 9-1-1 regulation by RHINO” (The Journal of Biological Chemistry, 2024)

T1: FLAG-tagged 9^ΔC-1-1 (9-1-1 ring), wild type (human, UniProt Q99638 1-272; O60671 1-282; O60921 1-280)
T1 construct: RAD9 with the C-tail truncated (RAD9^ΔC), human, residues 1-272, from pFastBac1-FLAG-RAD9^ΔC; RAD1 subunit of 9-1-1; HUS1 subunit of 9-1-1; also called 9^ΔC-1-1 (W); purified 9^ΔC-1-1; copies: + +
T1 sequence (looked up) 1: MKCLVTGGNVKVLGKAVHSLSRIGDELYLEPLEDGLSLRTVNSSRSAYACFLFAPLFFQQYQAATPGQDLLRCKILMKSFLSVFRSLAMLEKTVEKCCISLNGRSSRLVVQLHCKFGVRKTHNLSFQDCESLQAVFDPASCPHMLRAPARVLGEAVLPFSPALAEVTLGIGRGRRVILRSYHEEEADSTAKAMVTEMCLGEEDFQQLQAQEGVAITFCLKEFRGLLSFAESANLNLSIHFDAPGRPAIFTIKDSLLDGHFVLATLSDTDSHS
T1 sequence (looked up) 2: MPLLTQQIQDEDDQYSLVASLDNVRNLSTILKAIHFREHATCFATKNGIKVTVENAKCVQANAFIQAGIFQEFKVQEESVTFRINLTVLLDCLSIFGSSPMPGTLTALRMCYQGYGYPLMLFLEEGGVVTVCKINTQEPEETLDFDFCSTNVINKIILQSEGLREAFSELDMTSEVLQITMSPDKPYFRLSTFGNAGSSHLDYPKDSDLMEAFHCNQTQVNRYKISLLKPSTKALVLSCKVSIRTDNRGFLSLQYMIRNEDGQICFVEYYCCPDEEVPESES
T1 sequence (looked up) 3: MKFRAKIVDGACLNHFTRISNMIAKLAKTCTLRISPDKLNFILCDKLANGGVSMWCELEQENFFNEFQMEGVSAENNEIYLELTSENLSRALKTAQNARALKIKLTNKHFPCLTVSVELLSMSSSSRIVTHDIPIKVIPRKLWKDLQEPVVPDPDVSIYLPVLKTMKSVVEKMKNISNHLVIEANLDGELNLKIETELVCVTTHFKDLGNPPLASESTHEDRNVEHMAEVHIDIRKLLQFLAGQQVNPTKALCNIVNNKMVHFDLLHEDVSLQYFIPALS

T2: recombinant human 9-1-1 ring for crystallization (RAD9 residues 1-270, His-HUS1, RAD1 F64A/M256A/F266A) (human, UniProt Q99638 1-270; O60671 1-282; O60921 2-280, F64A | M256A | F266A)
T2 construct: C-terminal truncated RAD9, human, residues 1-270; RAD1, human, with the triple substitutions F64A/M256A/F266A; HUS1, human; source: E. coli BL21(DE3), co-expressed, purified (HiTrap Heparin, HiTrap Q, HiLoad Superdex200); copies: + +
T2 sequence 1: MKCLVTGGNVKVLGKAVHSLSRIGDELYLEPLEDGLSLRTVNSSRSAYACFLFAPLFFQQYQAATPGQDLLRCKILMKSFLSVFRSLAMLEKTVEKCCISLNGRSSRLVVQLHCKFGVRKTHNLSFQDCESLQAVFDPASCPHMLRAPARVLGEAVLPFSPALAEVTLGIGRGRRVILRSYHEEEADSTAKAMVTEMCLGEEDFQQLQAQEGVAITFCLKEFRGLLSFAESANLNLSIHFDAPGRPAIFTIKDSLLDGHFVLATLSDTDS
T2 sequence 2: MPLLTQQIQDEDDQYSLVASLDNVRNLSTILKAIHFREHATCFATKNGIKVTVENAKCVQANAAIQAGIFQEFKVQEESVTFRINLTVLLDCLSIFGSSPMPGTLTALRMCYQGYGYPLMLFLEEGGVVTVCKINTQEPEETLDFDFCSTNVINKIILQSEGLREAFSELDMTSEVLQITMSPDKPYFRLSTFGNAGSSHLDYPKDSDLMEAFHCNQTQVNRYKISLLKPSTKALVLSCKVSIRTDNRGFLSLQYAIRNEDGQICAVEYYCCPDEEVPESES
T2 sequence 3: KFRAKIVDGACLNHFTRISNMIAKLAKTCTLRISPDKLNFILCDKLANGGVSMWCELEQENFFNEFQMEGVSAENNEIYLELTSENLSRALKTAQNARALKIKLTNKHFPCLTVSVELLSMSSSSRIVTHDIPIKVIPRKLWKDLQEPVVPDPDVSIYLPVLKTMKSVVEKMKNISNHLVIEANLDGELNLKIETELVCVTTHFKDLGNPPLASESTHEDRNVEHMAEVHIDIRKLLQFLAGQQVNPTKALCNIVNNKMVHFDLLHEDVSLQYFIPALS

B1: GST-RAD9C15 F361A (peptide, UniProt Q99638 356-370, looked up)
chain: PPPKKARSLFFGSIL
notes: RAD9, human, residues 356-370 of the C-tail, F361A; source: E. coli Rosetta 2(DE3)pLysS, from cell lysate immobilised on Glutathione-Sepharose 4B beads and washed
B2: GST-tagged RAD9 (residues 356-370) (GST-RAD9C15), wild type (peptide, UniProt Q99638 356-370, looked up)
chain: PPPKKFRSLFFGSIL
notes: RAD9, human, residues 356-370 of the C-tail; source: E. coli Rosetta 2(DE3)pLysS, from cell lysate immobilised on Glutathione-Sepharose 4B beads and washed
B3: GST-tagged p21 C-terminal region (residues 87-164) (GST-p21CT), wild type (domain or fragment, human, UniProt P38936 87-164, looked up)
chain: DELGGGRRPGTSPALLQGTAEEDHVDLSLSCTLVPRSGEQAEGSPGGPGDSQGRKRRQTSMTDFYHSKRRLIFSKRKP
notes: p21, C-terminal region carrying the PIP-box, residues 87-164; also called p21 (W); source: E. coli Rosetta 2(DE3)pLysS, from cell lysate immobilised on Glutathione-Sepharose 4B beads and washed
B4: GST-RAD9C15 F365A (peptide, UniProt Q99638 356-370, looked up)
chain: PPPKKFRSLAFGSIL
notes: RAD9, human, residues 356-370 of the C-tail, F365A; source: E. coli Rosetta 2(DE3)pLysS, from cell lysate immobilised on Glutathione-Sepharose 4B beads and washed
B5: GST-p21CT FY (F150A/Y151A) (domain or fragment, human, UniProt P38936 87-164, looked up)
chain: DELGGGRRPGTSPALLQGTAEEDHVDLSLSCTLVPRSGEQAEGSPGGPGDSQGRKRRQTSMTDAAHSKRRLIFSKRKP
notes: p21, C-terminal region, residues 87-164, F150A/Y151A in the PIP-box; also called p21CT variant with the F150A/Y151A double substitution in the PIP-box; source: E. coli Rosetta 2(DE3)pLysS, from cell lysate immobilised on Glutathione-Sepharose 4B beads and washed
B6: human RHINO peptide (88-TSKFPHLTFESP-99) (peptide)
peptide: TSKFPHLTFESP
notes: also called RHINO (residues 88-99); source: synthetic peptide (TORAY Research Center, Inc)

Target: T1, FLAG-tagged 9^ΔC-1-1 (9-1-1 ring), wild …
Assay: pull-down; GST or GST-fusion proteins from E. coli lysate immobilised on Glutathione-Sepharose 4B beads and washed four times; incubated with purified PCNA, FLAG-tagged 9^ΔC-1-1 (W) or its LVF mutant for 2 h at 4 °C in 25 μl of buffer H (25 mM HEPES-NaOH pH 7.8, 150 mM NaCl, 1 mM EDTA, 10% glycerol, 0.01% NP-40); immunoblotting with anti-RAD1 or anti-PCNA antibody
Conditions: both partners purified

Binding result, binds:
B1
B2
B3
B4
B5

Target: T2, recombinant human 9-1-1 ring for …
Assay: crystal structure; 0.13 mM 9-1-1 ring incubated with about 10-fold molar excess of the RHINO peptide at 277 K overnight; vapor diffusion, 0.2 M potassium iodine, 14% PEG 3350, 293 K; 2.81 Å
Conditions: both partners purified

Binding result, binds:
B6
